Measurements taken from article PMC3328385 (The Journal of Cell Biology, 2012).
Substitutions are numbered along the chain they refer to. Numbers in names are those of the source.

B1: Munc13-4 (wild type, His6-tagged human Munc13-4) (natural protein)
chain: MATLLSHPQQRPPFLRQAIKIRRRRVRDLQDPPPQMAPEIQPPSHHFSPEQRALLYEDALYTVLHRLGHPEPNHVTEASELLRYLQEAFHVEPEEHQQTLQRVRELEKPIFCLKATVKQAKGILGKDVSGFSDPYCLLGIEQGVGVPGGSPGSRHRQKAVVRHTIPEEETHRTQVITQTLNPVWDETFILEFEDITNASFHLDMWDLDTVESVRQKLGELTDLHGLRRIFKEARKDKGQDDFLGNVVLRLQDLRCREDQWYPLEPRTETYPDRGQCHLQFQLIHKRRATSASRSQPSYTVHLHLLQQLVSHEVTQHEAGSTSWDGSLSPQAATVLFLHATQKDLSDFHQSMAQWLAYSRLYQSLEFPSSCLLHPITSIEYQWIQGRLKAEQQEELAASFSSLLTYGLSLIRRFRSVFPLSVSDSPARLQSLLRVLVQMCKMKAFGELCPNTAPLPQLVTEALQTGTTEWFHLKQQHHQPMVQGIPEAGKALLGLVQDVIGDLHQCQRTWDKIFHNTLKIHLFSMAFRELQWLVAKRVQDHTTVVGDVVSPEMGESLFQLYISLKELCQLRMSSSERDGVLALDNFHRWFQPAIPSWLQKTYNEALARVQRAVQMDELVPLGELTKHSTSAVDLSTCFAQISHTARQLDWPDPEEAFMITVKFVEDTCRLALVYCSLIKARARELSSGQKDQGQAANMLCVVVNDMEQLRLVIGKLPAQLAWEALEQRVGAVLEQGQLQNTLHAQLQSALAGLGHEIRTGVRTLAEQLEVGIAKHIQKLVGVRESVLPEDAILPLMKFLEVELCYMNTNLVQENFSSLLTLLWTHTLTVLVEAAASQRSSSLASNRLKIALQNLEICFHAEGCGLPPKALHTATFQALQRDLELQAASSRELIRKYFCSRIQQQAETTSEELGAVTVKASYRASEQKLRVELLSASSLLPLDSNGSSDPFVQLTLEPRHEFPELAARETQKHKKDLHPLFDETFEFLVPAEPCRKAGACLLLTVLDYDTLGADDLEGEAFLPLREVPGLSGSEEPGEVPQTRLPLTYPAPNGDPILQLLEGRKGDREAQVFVRLRRHRAKQASQHALRPAP
B2: C2A*B* Munc13-4 (D127N/D133N/D941N/D947N) (natural protein)
chain: B1 chain with D127N, D133N, D941N, D947N
B3: C2A* Munc13-4 (D127N/D133N) (natural protein)
chain: B1 chain with D127N, D133N
B4: C2B* Munc13-4 (D941N/D947N) (natural protein)
chain: B1 chain with D941N, D947N

How the values were obtained:
[1] = molecular target: t-SNAREs: syntaxin-1A/SNAP-25B, coexpressed, reconstituted in liposomes or supported bilayers (rat | mouse, UniProt P32851;P60879); experiment: liposome coflotation
[2] = molecular target: the molecule itself; experiment: native gel or EMSA

Chain of t-SNAREs: syntaxin-1A/SNAP-25B, coexpressed, reconstituted in liposomes or supported bilayers (P32851 whole entry, chain 1 of 2): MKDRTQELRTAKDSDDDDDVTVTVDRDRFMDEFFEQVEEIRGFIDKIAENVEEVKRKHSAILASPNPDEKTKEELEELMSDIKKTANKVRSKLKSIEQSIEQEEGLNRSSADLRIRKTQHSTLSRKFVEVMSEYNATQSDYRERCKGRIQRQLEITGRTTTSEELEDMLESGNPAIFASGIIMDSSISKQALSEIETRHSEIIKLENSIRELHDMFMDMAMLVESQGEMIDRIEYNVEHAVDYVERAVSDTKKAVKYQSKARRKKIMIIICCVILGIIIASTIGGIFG
Chain of t-SNAREs: syntaxin-1A/SNAP-25B, coexpressed, reconstituted in liposomes or supported bilayers (P60879 whole entry, chain 2 of 2): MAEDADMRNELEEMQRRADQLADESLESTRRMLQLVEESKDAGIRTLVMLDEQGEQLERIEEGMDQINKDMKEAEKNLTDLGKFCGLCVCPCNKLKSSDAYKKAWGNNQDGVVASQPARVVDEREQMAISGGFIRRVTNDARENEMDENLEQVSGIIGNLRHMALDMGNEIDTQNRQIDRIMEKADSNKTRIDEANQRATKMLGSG

Row | Binder | fold increase in binding with Ca2+ against no Ca2+ [1] [fold] | binding result [1] | binding result [2]
1 | B1 | 2.5 |  | 
2 | B2 |  | binds | binds
3 | B3 |  | binds | binds
4 | B4 |  | binds | binds
